Source: publication PMC7137635

Legend:
[1] = biological target: GST fusion of human OPTN (aa 2-311), Q96CV9-1; experiment: phage ELISA; details: Background correction to BSA signal was applied; read off a plot
p62 LIR (Homo sapiens) = p62 LIR (Homo sapiens) (UniProt Q13501); details: cited from earlier work

Chain of GATE-16 (P60520 1-116): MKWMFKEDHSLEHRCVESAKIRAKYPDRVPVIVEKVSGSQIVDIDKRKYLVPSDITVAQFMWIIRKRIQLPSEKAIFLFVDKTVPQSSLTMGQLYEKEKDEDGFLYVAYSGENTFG

| Substance | response [1] | Kd (p62 LIR (Homo sapiens)) |
| --- | --- | --- |
| LC3Bwt displayed on phage (from UniProt Q9GZQ8) F11L; R14L; R15N; Q19L; E22D; D23N; [26-28]I (column not resolved, see notes); K53I; K55G | 0.91 OD 450 nm |  |
| GATE-16 (from UniProt P60520) |  | 5.2 µM |
